Measurements published in patent publication US20030087315A1 (MCP HAHNEMANN UNIVERSITY, published 2003).
No end group written: not given here. *: point of attachment. Biotin = O=C1N[C@H]2[C@H](CS[C@H]2CCCCC(=O)*)N1

Columns and labels:
[1] = target: T1, α1(I) chain of type I collagen (mouse, UniProt P11087 168-1181, limits assumed); assay: electroblot assay, FIG. 5B
T1 construct: Denatured chain on a nitrocellulose filter; pepsin-treated collagen; also called α1 chain
Text: (§1) The α1(I) and α2(I) chains of type I collagen or CNBr fragments of the chains were separated by polyacrylamide gel electrophoresis and electroblotted onto filters. The filters were then hybridized with a biotinylated telopeptide followed by assay of the washed filter with streptavidin-horseradish peroxidase. “CNBr+” indicates α1(I) or α2(I) chains which were digested with cyanogen bromide.
(§2) Type I collagen extracted with 0.5 M acetic acid from mouse skin was digested with pepsin, and the a chains separated by gel electrophoresis in SDS. To generate CNBr peptides, gel slices containing α1(1) and α2(I) chains were placed into tubes and a chains were digested with 10 mg/ml or 200 mg/ml CNBr in 70% formic acid at room temperature overnight. The gel slices were equilibrated with 0.05 mM Tris-HCl buffer (pH 6.8) over 3 hours. Gel pieces containing CNBr peptides derived from individual collagen a chains were transferred into the wells of the second gel prepared with a 6% polyacrylamide stacking gel and 12% polyacrylamide separating gel with 0.5 M urea. After electrophoresis, the gel was electroblotted overnight at 4° C. onto a nitrocellulose filter (Millipore). […] The bands were detected by chemiluminescence (ECL; Amersham) after exposure to an X-ray film for 3 to 10 min.

[2] = target: T2, α2(I) chain of type I collagen (mouse, UniProt Q01149 97-1110, limits assumed); assay: filter binding assay, electroblotted chains, avidin-peroxidase
T2 construct: Denatured chain on a nitrocellulose filter; pepsin-treated collagen
Text: as §1
Type I collagen extracted with 0.5 M acetic acid from mouse skin was digested with pepsin, and the a chains separated by gel electrophoresis in SDS. To generate CNBr peptides, gel slices containing α1(1) and α2(I) chains were placed into tubes and a chains were digested with 10 mg/ml or 200 mg/ml CNBr in 70% formic acid at room temperature overnight. The gel slices were equilibrated with 0.05 mM Tris-HCl buffer (pH 6.8) over 3 hours. Gel pieces containing CNBr peptides derived from individual collagen a chains were transferred into the wells of the second gel prepared with a 6% polyacrylamide stacking gel and 12% polyacrylamide separating gel with 0.5 M urea. After electrophoresis, the gel was electroblotted overnight at 4° C. onto a nitrocellulose filter (Millipore). To study binding of telopeptides to collagen fragments, the method described by Fujisawa et al. (Fujisawa et al., 1994, Calcif. Tiss. Int. 56:140-144) was used. The filters were blocked with 1% bovine serum albumin (Sigma) and then incubated overnight with 20 ml of 5 mg/ml peptide that was substituted at the N-terminus with biotin (synthesized for us by American Peptide Company, Inc.). The filter was washed three times with Tris-buffered saline containing 0.02% Tween (TBST) and incubated 30 min with a 1:30,000 dilution of horseradish peroxidase conjugated with avidin (Sigma). The bands were detected by chemiluminescence (ECL; Amersham) after exposure to an X-ray film for 3 to 10 min.

[3] = target: T1, α1(I) chain of type I collagen; assay: electroblot assay, FIG. 5C
Text: as §1, §2

T2 sequence (Q01149 97-1110 limits assumed): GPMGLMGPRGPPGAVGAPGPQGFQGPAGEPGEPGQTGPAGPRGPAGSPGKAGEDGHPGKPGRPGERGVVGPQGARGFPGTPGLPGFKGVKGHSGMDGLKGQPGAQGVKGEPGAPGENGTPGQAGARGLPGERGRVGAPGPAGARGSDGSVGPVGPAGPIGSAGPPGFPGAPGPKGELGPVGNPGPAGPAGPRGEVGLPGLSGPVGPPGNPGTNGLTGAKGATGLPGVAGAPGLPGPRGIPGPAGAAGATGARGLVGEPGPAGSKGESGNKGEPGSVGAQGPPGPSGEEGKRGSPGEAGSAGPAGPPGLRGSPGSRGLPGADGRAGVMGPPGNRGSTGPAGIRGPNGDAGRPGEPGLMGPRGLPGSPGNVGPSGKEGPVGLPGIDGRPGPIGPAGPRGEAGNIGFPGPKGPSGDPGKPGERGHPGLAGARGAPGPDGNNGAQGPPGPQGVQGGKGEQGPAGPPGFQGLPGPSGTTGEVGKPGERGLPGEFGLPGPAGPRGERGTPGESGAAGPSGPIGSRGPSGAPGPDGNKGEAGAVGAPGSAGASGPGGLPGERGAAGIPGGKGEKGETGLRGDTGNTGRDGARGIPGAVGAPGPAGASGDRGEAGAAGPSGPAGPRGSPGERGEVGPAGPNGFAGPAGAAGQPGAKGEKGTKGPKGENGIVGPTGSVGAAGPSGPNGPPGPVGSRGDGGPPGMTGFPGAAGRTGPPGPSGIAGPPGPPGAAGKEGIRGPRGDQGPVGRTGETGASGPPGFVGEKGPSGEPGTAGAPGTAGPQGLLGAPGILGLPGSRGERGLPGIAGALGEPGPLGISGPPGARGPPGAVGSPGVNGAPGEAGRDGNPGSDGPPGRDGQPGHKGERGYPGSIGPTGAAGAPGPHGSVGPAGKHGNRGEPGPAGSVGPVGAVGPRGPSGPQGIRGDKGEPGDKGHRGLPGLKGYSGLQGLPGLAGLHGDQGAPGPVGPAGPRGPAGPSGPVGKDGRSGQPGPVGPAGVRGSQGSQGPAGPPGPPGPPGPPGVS
T1 sequence (P11087 168-1181 limits assumed): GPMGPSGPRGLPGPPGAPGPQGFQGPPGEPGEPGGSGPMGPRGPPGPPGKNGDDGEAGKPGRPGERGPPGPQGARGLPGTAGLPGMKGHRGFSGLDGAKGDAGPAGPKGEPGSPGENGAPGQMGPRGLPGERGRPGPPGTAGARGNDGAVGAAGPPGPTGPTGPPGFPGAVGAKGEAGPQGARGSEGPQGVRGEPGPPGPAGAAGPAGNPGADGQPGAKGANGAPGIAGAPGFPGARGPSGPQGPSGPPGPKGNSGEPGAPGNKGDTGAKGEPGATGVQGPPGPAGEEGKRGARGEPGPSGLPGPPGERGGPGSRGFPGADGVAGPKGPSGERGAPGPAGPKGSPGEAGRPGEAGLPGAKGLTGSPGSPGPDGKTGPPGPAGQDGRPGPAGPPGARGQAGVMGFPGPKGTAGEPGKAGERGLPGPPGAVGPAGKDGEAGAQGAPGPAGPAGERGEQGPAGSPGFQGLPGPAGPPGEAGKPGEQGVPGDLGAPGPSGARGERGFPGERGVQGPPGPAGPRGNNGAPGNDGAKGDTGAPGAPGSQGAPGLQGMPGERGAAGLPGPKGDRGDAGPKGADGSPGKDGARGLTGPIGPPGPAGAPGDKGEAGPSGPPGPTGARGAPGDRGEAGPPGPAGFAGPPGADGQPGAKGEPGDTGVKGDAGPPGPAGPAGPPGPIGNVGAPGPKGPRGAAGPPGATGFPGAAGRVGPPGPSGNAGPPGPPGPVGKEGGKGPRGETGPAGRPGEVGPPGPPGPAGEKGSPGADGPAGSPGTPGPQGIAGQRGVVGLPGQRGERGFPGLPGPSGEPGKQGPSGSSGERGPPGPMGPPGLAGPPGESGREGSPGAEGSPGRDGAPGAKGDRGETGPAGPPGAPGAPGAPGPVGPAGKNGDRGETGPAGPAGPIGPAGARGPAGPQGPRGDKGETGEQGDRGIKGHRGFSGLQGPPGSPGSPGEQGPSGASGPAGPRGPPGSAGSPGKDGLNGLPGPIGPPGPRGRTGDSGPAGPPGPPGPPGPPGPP

Binder	binding result [1]	binding result [2]	binding result [3]
Biotin-GGGYDFGYDGDFYRA (also called biotinylated F3) [biotinylated C-telopeptide of α2 chain of human type I collagen]	binds	no binding (tested: 5 mg/ml peptide (so in the source))	
Biotin-QYDGKGVGLGP (peptide, UniProt P08123 80-90, looked up, domain: N-telopeptide; also called biotinylated α2 N-telopeptide) [biotinylated N-telopeptide of α2 chain of human type I collagen]		no binding (tested: 5 mg/ml peptide (so in the source))	
Biotin-QLSYGYDEKSTGGISVP (also called biotinylated α1 N-telopeptide) [biotinylated N-telopeptide of the α1 chain of human type I collagen]		no binding (tested: 5 mg/ml peptide (so in the source))	binds
